The values that follow come from PMC9107513.

Series [1] in a line: western blot, endogenous SERCA3, C2C12 myotubes ± MG-132. The note with it: glycan lost; control: vector / control siRNA. Background: Immunoblotting shows a protein as a band on a membrane.
Series [2] can be described thus: western blot, FLAG-tagged wild-type SERCA3 in C2C12. The note with it: glycan lost; control: vector / control siRNA.

B1: SERCA3: siRNA-mediated knockdown of OGT (protein)
parent chain: MEEAHLLSAADVLRRFSVTAEGGLSLEQVTDARERYGPNELPTEEGKSLWELVVEQFEDLLVRILLLAALVSFVLAWFEEGEETTTAFVEPLVIMLILVANAIVGVWQERNAESAIEALKEYEPEMGKVIRSDRKGVQRIRARDIVPGDIVEVAVGDKVPADLRLIEIKSTTLRVDQSILTGESVSVTKHTDAIPDPRAVNQDKKNMLFSGTNIASGKALGVAVATGLQTELGKIRSQMAAVEPERTPLQRKLDEFGRQLSHAISVICVAVWVINIGHFADPAHGGSWLRGAVYYFKIAVALAVAAIPEGLPAVITTCLALGTRRMARKNAIVRSLPSVETLGCTSVICSDKTGTLTTNQMSVCRMFVVAEAEAGTCRLHEFTISGTTYTPEGEVRQGEQPVRCGQFDGLVELATICALCNDSALDYNEAKGVYEKVGEATETALTCLVEKMNVFDTDLKGLSRVERAGACNSVIKQLMRKEFTLEFSRDRKSMSVYCTPTRADPKVQGSKMFVKGAPESVIERCSSVRVGSRTAPLSTTSREHILAKIRDWGSGSDTLRCLALATRDTPPRKEDMHLDDCSRFVQYETDLTFVGCVGMLDPPRPEVAACITRCSRAGIRVVMITGDNKGTAVAICRRLGIFGDTEDVLGKAYTGREFDDLSPEQQRQACRTARCFARVEPAHKSRIVENLQSFNEITAMTGDGVNDAPALKKAEIGIAMGSGTAVAKSAAEMVLSDDNFASIVAAVEEGRAIYNNMKQFIRYLISSNVGEVVCIFLTAILGLPEALIPVQLLWVNLVTDGLPATALGFNPPDLDIMEKPPRNPREALISGWLFFRYLAIGVYVGLATVAAATWWFLYDTEGPQVTFYQLRNFLKCSEDNPLFAGIDCKVFESRFPTTMALSVLVTIEMCNALNSVSENQSLLRMPPWLNPWLLGAVVMSMALHFLILLVPPLPLIFQVTPLSGRQWGVVLQMSLPVILLDEALKYLSRNHMDEKKDLK
Take B1: the expression_or_secretion entry in series [1] is “decreases”.

B2: human SERCA3: OGT knockdown (protein)
parent chain: MEAAHLLPAADVLRHFSVTAEGGLSPAQVTGARERYGPNELPSEEGKSLWELVLEQFEDLLVRILLLAALVSFVLAWFEEGEETTTAFVEPLVIMLILVANAIVGVWQERNAESAIEALKEYEPEMGKVIRSDRKGVQRIRARDIVPGDIVEVAVGDKVPADLRLIEIKSTTLRVDQSILTGESVSVTKHTEAIPDPRAVNQDKKNMLFSGTNITSGKAVGVAVATGLHTELGKIRSQMAAVEPERTPLQRKLDEFGRQLSHAISVICVAVWVINIGHFADPAHGGSWLRGAVYYFKIAVALAVAAIPEGLPAVITTCLALGTRRMARKNAIVRSLPSVETLGCTSVICSDKTGTLTTNQMSVCRMFVVAEADAGSCLLHEFTISGTTYTPEGEVRQGDQPVRCGQFDGLVELATICALCNDSALDYNEAKGVYEKVGEATETALTCLVEKMNVFDTDLQALSRVERAGACNTVIKQLMRKEFTLEFSRDRKSMSVYCTPTRPHPTGQGSKMFVKGAPESVIERCSSVRVGSRTAPLTPTSREQILAKIRDWGSGSDTLRCLALATRDAPPRKEDMELDDCSKFVQYETDLTFVGCVGMLDPPRPEVAACITRCYQAGIRVVMITGDNKGTAVAICRRLGIFGDTEDVAGKAYTGREFDDLSPEQQRQACRTARCFARVEPAHKSRIVENLQSFNEITAMTGDGVNDAPALKKAEIGIAMGSGTAVAKSAAEMVLSDDNFASIVAAVEEGRAIYSNMKQFIRYLISSNVGEVVCIFLTAILGLPEALIPVQLLWVNLVTDGLPATALGFNPPDLDIMEKLPRSPREALISGWLFFRYLAIGVYVGLATVAAATWWFVYDAEGPHINFYQLRNFLKCSEDNPLFAGIDCEVFESRFPTTMALSVLVTIEMCNALNSVSENQSLLRMPPWMNPWLLVAVAMSMALHFLILLVPPLPLIFQVTPLSGRQWVVVLQISLPVILLDEALKYLSRNHMHEEMSQK
Take B2: in series [2], the expression_or_secretion result is reported as “decreases”.
